From patent US20150258192A1, “COMPOSITIONS AND METHODS FOR PREVENTING OR TREATING CHRONIC LUNG ALLOGRAFT DYSFUNCTION (CLAD) AND IDIOPATHIC PULMONARY FIBROSIS (IPF)” (priority 2014, published 2015)
No end group written: not given here.

Assays:
Test in all cases: Kinase Profiling Assay
Format in all cases: biochemical
Details in all cases: peptide 100 μM
[1] = target: T1, HIPK1(h) (Homo sapiens, UniProt Q86Z02)
T1 construct: purchased Millipore
Summary of the method: (§1)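 Measured twice per kinase, activity in presence of MK2 inhibitory peptide was calculated against a 100% activity control after radiometric phosphorylation of a cationic substrate, anionic filter capture and scintillation counting; one of 266 human kinases profiled for specificity.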

[2] = target: T2, MST2(h) (Homo sapiens, UniProt Q13188)
T2 construct: purchased Millipore
T2 sequence (Q13188 1-491): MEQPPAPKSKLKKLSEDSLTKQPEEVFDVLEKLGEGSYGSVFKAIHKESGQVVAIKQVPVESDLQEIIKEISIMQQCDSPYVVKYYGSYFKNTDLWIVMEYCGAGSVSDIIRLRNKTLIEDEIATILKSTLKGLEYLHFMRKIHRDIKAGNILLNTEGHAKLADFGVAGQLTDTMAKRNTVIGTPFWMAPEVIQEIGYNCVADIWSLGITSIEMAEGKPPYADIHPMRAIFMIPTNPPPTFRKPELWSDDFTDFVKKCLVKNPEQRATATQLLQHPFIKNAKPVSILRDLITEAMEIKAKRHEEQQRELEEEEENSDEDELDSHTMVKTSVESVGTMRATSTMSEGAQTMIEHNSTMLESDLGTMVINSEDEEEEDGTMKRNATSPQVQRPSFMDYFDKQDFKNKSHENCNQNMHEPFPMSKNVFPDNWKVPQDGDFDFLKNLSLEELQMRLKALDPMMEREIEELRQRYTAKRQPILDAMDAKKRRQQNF
Summary of the method: as §1

[3] = target: Aurora-B(h) (Homo sapiens, UniProt Q96GD4)
Summary of the method: as §1

[4] = target: T3, TAK1(h) (Homo sapiens, UniProt O43318)
T3 construct: purchased Millipore
T3 sequence (O43318 1-303 limits assumed): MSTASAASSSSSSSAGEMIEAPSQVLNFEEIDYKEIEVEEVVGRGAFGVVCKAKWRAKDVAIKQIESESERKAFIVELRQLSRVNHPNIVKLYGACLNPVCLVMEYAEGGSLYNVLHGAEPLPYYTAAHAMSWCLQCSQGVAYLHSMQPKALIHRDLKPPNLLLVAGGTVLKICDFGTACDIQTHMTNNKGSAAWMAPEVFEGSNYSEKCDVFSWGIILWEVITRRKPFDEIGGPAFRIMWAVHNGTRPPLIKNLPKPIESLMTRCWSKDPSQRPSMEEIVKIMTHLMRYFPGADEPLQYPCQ
Summary of the method: as §1

[5] = target: T4, PKCζ(h) (Homo sapiens, UniProt Q05513)
T4 sequence (Q05513 1-592): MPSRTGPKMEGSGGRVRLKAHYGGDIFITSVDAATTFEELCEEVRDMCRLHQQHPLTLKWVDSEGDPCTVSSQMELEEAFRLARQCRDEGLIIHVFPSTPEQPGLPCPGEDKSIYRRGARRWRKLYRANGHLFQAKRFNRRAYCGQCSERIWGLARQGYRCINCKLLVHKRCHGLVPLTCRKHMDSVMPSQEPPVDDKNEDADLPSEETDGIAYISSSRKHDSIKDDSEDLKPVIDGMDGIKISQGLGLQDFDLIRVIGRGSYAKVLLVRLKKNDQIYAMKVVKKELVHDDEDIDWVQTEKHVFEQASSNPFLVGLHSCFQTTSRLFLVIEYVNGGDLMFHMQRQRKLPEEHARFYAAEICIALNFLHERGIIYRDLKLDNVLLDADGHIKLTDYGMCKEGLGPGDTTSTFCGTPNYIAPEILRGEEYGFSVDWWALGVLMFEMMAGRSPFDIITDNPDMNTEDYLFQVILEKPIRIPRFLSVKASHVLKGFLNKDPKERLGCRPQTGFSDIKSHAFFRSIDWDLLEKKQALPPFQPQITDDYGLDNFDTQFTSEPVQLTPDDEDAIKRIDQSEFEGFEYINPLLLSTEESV
Summary of the method: as §1

[6] = target: AMPKα2(h) (Homo sapiens, UniProt P54646)
Summary of the method: as §1

[7] = target: Yes(h) (Homo sapiens, UniProt P07947)
Summary of the method: as §1

[8] = target: cKit(h) (Homo sapiens, UniProt P10721)
Summary of the method: as §1

[9] = target: FGFR1(h) (Homo sapiens, UniProt P11362)
Summary of the method: as §1

[10] = target: T5, PKG1α(h) (Homo sapiens, UniProt Q13976)
T5 sequence (Q13976 1-671): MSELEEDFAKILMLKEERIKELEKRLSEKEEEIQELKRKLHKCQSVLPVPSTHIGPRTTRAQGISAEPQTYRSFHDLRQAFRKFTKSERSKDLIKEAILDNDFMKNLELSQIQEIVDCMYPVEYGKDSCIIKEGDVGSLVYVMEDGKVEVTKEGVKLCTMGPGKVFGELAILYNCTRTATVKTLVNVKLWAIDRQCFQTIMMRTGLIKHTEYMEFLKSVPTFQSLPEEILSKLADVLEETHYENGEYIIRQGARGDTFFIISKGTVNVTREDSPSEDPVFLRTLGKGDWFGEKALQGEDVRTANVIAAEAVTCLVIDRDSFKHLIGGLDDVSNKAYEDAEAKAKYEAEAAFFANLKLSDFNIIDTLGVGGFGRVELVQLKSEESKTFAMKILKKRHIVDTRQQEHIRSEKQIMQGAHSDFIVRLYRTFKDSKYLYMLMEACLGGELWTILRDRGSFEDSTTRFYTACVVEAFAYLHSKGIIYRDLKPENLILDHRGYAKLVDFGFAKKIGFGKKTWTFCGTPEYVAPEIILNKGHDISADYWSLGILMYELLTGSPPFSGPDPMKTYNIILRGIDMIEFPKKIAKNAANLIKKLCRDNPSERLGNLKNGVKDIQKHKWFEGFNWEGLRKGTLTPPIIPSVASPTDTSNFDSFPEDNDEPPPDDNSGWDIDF
Summary of the method: as §1

[11] = target: Fgr(h) (Homo sapiens, UniProt P09769)
Summary of the method: as §1

[12] = target: CDK5/p25(h) (Homo sapiens, UniProt Q00535)
Summary of the method: as §1

Chain of CDK5/p25(h) (Q00535 whole entry): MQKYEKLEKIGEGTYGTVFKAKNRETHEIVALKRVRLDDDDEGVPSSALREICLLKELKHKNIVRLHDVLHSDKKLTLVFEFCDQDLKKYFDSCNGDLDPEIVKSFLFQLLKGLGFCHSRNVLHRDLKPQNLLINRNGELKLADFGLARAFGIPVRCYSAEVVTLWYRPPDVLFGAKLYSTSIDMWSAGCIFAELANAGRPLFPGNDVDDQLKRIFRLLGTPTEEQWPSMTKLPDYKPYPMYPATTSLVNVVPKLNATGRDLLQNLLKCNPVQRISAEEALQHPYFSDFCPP
Chain of CDK5/p25(h) (Q15078 99-307 partner limits assumed): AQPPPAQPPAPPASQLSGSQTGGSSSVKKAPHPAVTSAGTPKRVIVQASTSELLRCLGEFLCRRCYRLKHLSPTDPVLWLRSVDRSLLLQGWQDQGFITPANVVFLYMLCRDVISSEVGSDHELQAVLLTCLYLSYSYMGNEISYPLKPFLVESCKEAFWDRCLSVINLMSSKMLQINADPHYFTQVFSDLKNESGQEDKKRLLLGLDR
Chain of FGFR1(h) (P11362 22-822): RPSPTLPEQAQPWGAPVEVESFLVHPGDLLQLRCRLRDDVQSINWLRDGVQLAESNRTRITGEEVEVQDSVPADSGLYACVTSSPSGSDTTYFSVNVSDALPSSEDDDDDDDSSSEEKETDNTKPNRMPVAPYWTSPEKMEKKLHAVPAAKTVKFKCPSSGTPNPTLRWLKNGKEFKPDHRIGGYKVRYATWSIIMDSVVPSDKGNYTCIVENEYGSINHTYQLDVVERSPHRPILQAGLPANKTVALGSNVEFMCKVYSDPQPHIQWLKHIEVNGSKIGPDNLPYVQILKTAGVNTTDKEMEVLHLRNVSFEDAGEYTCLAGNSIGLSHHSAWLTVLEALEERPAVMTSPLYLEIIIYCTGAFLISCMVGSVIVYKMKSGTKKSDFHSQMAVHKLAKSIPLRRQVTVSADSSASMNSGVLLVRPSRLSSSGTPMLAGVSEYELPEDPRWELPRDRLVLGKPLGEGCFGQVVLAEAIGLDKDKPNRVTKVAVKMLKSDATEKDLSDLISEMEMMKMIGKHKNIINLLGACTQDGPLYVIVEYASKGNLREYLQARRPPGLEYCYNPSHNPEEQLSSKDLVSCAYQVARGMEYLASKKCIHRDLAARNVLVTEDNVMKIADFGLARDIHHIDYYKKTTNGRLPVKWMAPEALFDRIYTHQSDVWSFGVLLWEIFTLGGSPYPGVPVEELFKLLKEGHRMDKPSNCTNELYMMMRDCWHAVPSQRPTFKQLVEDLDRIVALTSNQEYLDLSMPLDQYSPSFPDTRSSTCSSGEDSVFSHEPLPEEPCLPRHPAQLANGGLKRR
Chain of Yes(h) (P07947 whole entry): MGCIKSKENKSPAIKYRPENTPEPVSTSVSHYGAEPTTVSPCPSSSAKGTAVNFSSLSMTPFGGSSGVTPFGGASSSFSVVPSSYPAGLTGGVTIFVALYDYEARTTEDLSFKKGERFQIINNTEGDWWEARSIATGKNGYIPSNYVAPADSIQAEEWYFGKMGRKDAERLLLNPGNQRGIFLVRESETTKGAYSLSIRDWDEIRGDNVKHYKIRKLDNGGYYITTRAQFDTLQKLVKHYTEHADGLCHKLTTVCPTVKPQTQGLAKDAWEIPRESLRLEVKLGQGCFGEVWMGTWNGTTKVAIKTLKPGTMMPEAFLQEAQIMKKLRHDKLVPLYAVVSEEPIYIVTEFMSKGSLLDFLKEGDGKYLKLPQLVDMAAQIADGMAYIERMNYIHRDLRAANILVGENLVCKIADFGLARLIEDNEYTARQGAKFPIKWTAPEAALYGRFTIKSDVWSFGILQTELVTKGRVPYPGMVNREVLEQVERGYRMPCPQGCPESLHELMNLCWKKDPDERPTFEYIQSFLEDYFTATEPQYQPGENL
T1 sequence (Q86Z02 whole entry): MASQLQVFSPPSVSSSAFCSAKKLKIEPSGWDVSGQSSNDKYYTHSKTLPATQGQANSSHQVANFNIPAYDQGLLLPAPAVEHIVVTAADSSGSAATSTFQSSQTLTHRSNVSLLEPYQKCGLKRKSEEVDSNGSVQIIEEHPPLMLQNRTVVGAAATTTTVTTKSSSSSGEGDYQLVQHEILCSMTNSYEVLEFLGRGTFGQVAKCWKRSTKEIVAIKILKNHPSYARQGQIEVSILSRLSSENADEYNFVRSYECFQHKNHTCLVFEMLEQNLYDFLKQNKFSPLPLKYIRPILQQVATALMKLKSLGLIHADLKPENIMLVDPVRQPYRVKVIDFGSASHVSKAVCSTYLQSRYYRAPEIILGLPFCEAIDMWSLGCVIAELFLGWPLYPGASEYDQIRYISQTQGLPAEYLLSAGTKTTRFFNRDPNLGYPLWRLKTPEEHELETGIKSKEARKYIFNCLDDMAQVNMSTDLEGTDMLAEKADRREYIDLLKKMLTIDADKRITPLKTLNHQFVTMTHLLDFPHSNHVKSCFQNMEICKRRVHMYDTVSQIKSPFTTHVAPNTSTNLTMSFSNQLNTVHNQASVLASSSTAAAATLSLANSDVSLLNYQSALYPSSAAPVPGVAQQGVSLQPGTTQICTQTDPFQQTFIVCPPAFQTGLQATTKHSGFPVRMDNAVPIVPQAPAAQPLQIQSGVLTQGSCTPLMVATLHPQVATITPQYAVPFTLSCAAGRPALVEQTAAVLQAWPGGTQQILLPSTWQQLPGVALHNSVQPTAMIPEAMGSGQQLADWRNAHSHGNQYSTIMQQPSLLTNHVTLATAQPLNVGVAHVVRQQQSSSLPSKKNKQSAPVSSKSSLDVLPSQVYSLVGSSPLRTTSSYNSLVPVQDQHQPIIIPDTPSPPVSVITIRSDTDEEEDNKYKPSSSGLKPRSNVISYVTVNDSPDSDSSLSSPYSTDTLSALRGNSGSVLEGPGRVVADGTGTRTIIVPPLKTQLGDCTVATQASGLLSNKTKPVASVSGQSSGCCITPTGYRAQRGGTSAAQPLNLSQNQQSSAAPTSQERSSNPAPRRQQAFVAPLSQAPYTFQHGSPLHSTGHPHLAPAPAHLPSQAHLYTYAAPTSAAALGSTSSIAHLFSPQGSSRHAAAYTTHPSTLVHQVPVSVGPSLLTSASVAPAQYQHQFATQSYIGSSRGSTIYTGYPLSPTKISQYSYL
Chain of Aurora-B(h) (Q96GD4 whole entry): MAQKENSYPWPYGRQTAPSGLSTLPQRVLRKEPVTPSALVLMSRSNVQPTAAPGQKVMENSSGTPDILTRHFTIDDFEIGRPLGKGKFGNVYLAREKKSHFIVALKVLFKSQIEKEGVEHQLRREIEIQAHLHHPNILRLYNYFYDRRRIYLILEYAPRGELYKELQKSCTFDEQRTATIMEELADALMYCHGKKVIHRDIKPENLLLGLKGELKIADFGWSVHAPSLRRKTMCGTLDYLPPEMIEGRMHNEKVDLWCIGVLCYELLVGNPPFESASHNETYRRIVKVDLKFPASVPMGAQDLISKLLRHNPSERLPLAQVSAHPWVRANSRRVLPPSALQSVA
Chain of AMPKα2(h) (P54646 whole entry): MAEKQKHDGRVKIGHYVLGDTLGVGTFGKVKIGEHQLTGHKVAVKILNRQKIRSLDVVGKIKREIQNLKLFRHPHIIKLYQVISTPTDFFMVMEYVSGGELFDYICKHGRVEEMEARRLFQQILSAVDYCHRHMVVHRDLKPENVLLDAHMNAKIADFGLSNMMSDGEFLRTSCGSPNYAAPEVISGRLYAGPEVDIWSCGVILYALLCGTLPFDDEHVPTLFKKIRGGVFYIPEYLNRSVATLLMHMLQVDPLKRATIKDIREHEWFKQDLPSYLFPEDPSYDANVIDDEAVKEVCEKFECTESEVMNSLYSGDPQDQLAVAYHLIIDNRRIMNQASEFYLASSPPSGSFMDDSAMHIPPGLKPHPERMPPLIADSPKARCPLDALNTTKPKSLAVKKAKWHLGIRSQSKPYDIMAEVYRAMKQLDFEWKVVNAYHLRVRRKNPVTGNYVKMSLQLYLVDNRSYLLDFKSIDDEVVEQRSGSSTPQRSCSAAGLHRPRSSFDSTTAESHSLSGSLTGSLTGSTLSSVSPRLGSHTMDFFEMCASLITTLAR
Chain of AMPKα2(h) (Q9Y478 whole entry partner): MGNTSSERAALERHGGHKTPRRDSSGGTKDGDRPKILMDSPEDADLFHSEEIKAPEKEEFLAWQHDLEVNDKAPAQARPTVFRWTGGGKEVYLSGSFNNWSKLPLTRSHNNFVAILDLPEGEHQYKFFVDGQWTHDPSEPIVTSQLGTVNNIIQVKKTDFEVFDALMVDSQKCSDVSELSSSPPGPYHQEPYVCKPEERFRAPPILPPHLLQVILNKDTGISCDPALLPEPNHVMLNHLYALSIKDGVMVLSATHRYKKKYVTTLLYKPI
Chain of AMPKα2(h) (P54619 whole entry partner): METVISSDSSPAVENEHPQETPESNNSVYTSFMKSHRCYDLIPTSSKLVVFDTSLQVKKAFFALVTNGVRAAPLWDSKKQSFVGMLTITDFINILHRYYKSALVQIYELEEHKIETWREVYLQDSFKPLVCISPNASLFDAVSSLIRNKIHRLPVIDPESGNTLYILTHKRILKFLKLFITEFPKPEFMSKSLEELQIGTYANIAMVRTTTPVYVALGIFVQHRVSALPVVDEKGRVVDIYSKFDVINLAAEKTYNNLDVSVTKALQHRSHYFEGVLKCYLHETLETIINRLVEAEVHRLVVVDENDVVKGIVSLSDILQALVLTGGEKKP

FAKLAARLYRKALARQLGVAA [MMI-0300]
% activity [1]: 74%
% activity [2]: 19%
% activity [3]: 128%
% activity [4]: 122%
% activity [5]: 81%
% activity [6]: 54%
% activity [7]: 67%
% activity [8]: 53%
% activity [9]: 55%
% activity [10]: 64%
% activity [11]: 60%
% activity [12]: 89%

HRRIKAWLKKIKALARQLGVAA (Mammal) [MMI-0500]
% activity [1]: 47%
% activity [2]: 2%
% activity [3]: 5%
% activity [5]: 7%
% activity [6]: 9%
% activity [8]: 45%
% activity [9]: 18%
% activity [10]: 25%
% activity [12]: 66%

KAFAKLAARLYRKALARQLGVAA [MMI-0400]
% activity [1]: 91%
% activity [2]: 11%
% activity [3]: 150%
% activity [4]: 177%
% activity [5]: 75%
% activity [6]: 58%
% activity [7]: 14%
% activity [8]: 43%
% activity [9]: 59%
% activity [10]: 58%
% activity [11]: 47%
% activity [12]: 92%

YARAAARQARAKALARQLGVAA [MMI-0100]
% activity [1]: 94%
% activity [2]: 98%
% activity [5]: 82%
% activity [8]: 95%
% activity [9]: 120%
% activity [10]: 82%

YARAAARQARAKALNRQLGVA (Mammal) [MMI-0200]
% activity [3]: 166%
% activity [4]: 124%
% activity [5]: 98%
% activity [6]: 88%
% activity [7]: 93%
% activity [8]: 110%
% activity [9]: 97%
% activity [10]: 70%
% activity [11]: 71%
% activity [12]: 97%
